Laboratory results taken from PMC3097136.

T1: COUP-TFI (Nr2f1) (Mus musculus, UniProt Q60632 1-422)
T1 sequence: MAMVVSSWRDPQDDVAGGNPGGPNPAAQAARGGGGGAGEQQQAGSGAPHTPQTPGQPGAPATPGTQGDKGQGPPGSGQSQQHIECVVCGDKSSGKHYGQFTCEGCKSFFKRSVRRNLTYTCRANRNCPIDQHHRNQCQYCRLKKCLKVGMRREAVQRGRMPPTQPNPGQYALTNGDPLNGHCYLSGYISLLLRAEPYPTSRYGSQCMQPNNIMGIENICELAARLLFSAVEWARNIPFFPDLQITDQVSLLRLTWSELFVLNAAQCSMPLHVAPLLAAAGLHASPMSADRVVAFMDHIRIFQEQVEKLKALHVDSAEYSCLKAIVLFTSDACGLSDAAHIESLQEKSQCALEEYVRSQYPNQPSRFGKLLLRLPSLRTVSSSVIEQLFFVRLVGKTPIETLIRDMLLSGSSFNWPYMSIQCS

T2: COUP-TFII (Nr2f2) (Mus musculus, UniProt P43135 1-414)
T2 sequence: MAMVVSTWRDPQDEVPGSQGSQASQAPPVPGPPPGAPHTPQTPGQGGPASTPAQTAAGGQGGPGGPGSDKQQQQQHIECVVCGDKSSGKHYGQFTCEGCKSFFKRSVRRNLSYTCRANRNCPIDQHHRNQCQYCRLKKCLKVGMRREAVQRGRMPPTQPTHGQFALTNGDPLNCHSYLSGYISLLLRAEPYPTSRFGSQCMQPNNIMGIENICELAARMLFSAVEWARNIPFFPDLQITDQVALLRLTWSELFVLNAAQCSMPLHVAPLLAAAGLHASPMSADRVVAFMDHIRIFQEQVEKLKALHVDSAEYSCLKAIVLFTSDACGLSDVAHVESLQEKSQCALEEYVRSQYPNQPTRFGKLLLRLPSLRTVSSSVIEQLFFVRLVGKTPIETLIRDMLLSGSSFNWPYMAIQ

B1: probe A* (mutated NRBE) (dsDNA)
DNA 1: ATCCAAGCTCGAATTGAAATCTCTTT
DNA 2: AAAGAGATTTCAATTCGAGCTTGGAT
B2: cold probe A* (dsDNA)
DNA 1: ATCCAAGCTCGAATTGAAATCTCTTT
DNA 2: AAAGAGATTTCAATTCGAGCTTGGAT
B3: probe A (nPE2 NRBE) (dsDNA)
DNA 1: ATCCAAAGGTCAATTGAAATCTCTTT
DNA 2: AAAGAGATTTCAATTGACCTTTGGAT
B4: cold probe A (dsDNA)
DNA 1: ATCCAAAGGTCAATTGAAATCTCTTT
DNA 2: AAAGAGATTTCAATTGACCTTTGGAT

Experiments:
[1] = biological target: tESR1 (estrogen receptor alpha DNA-binding domain) (Homo sapiens, UniProt P03372 185-250); assay: EMSA
COUP-TFI (Nr2f1) [2] = biological target: T1, COUP-TFI (Nr2f1); assay: EMSA
COUP-TFI (Nr2f1) [3] = biological target: T1, COUP-TFI (Nr2f1); assay: competition
COUP-TFII (Nr2f2) = biological target: T2, COUP-TFII (Nr2f2); assay: EMSA
COUP-TFI (Nr2f1) [4] = biological target: T1, COUP-TFI (Nr2f1); assay: competition; remark: listed apart in the source

Sequence of tESR1 (estrogen receptor alpha DNA-binding domain) (P03372 185-250): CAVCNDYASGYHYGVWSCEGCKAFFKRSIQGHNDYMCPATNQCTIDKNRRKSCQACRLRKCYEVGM

Binder	binding result [1]	binding result (COUP-TFI (Nr2f1) [2])	binding result (COUP-TFI (Nr2f1) [3])	binding result (COUP-TFII (Nr2f2))	binding result (COUP-TFI (Nr2f1) [4])
B1	no binding	no binding	–	–	–
B2	–	–	no binding	–	–
B3	binds	binds	–	binds	–
B4	–	–	–	–	binds
